A word on the Kd: it is the constant that tells how readily two partners part at equilibrium. As usually defined, the koff is the rate constant with which the complex falls apart. As usually defined, the kon is the rate constant with which the complex forms.

Eight molecules from patent US20230012273A1 (Boehringer Ingelheim, published 2023) can be followed below.

Assay [1] deals with T1, cynoSIRPα (XP_015313155), Extracellular Domain + His-Tag (cynomolgus monkey).
T1 construct: also called CySIRPα XP_015313155; not shown: His-Tag
T1 chain: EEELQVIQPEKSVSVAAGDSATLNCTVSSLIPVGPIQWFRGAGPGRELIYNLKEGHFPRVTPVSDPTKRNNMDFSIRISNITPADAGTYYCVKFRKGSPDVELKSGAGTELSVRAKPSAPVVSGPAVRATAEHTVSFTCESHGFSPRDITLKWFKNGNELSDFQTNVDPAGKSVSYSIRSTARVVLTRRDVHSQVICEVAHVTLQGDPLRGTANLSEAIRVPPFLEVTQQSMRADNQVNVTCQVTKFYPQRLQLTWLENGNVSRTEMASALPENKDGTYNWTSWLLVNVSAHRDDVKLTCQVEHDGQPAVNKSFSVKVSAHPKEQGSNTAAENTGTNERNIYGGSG
In words: SPR, antibody captured on Protein A/G, ECD-His analyte, steady-state fit. The protocol: (§1) The binding kinetics of anti-SIRPα antibodies to various SIRPα analytes are determined by surface plasmon resonance (SPR) using a Biacore 8K+(Cytiva). 1×HBS-EP+(Cytiva) is used as running buffer and for all the dilutions unless stated otherwise. The Series S CM5 sensorchip is activated with a 1:1 mixture of 0.1 M NHS (N-hydroxysuccinimide) and 0.4 M EDC (1-Ethyl-3-(3-dimethylaminopropyl) carbodiimide hydrochloride) for 420 seconds at a flow rate of 10 μl/min and immobilized with Protein A/G (Thermo Scientific, 10 μg/ml in 10 mM acetate pH 4.5) for 420 seconds at a flowrate of 10 μl/min resulting in approximately 3000 RU of Protein A/G on the surface. The sensorchip is then deactivated with 1 M ethanolamine HCl pH 8.5 for 420 seconds at a flowrate of 10 μl/min.
(§2) Antibodies (approximately 1 ug/ml) are captured on the Protein A/G surface for 60 seconds at a flowrate of 10 μl/min resulting in capture levels of approximately 240 RU. Dilutions of each SIRP protein (Extracellular Domain+His-Tag, with the concentrations as indicated) are injected as analytes over the captured antibody for 300 seconds of association at a flowrate of 30 μl/min, followed by a dissociation for 600 seconds.
(§3) The above procedures are used to measure binding properties of antibodies of the present disclosure. For each analyte used, the highest concentration was as indicated in Example 3 (see Table 36).
For orientation: Surface plasmon resonance follows binding to a sensor surface in real time, without labels.

In assay [2] the target is T2, cynoSIRPα (EGM_02252), Extracellular Domain + His-Tag (cynomolgus monkey).
T2 construct: also called CySIRPα EGM_02252; not shown: His-Tag
T2 chain: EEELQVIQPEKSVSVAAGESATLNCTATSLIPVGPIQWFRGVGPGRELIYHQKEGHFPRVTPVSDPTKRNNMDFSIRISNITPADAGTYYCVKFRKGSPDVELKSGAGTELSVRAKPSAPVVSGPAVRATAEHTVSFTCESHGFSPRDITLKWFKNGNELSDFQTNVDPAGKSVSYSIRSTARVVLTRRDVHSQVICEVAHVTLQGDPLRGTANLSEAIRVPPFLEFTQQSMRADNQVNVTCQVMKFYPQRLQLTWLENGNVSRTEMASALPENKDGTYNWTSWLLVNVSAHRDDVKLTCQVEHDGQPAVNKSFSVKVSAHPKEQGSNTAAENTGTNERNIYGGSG
Described as above. The protocol: as §1, §2, §3

For assay [3], the target named is T3, cynoSIRPα (NP_001271679), Extracellular Domain + His-Tag (cynomolgus monkey).
T3 construct: also called CySIRPα NP_001271679; not shown: His-Tag
T3 chain: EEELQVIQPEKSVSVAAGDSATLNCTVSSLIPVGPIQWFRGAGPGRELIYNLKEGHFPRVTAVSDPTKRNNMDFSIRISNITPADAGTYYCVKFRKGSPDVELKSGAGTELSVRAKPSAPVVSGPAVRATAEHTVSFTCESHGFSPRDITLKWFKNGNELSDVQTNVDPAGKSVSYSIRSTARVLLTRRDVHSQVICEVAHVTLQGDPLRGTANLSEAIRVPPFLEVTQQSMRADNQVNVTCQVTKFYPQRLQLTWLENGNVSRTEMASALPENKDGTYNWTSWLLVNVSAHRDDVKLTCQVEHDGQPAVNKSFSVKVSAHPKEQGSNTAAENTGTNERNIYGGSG
The assay is described as above. The protocol: as §1, §2, §3

The target in assay [4] is T4, Human SIRPαV2 (CAA71403.1), Extracellular Domain + His-Tag (human, UniProt P78324 31-373).
T4 construct: also called huSIRPαV2; hSIRPαV2; not shown: His-Tag
Kind of assay: SPR, antibody captured on Protein A/G, ECD-His analyte, 1:1 fit. A digest of the protocol: (§4)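 Analyte was His-tagged SIRPα extracellular domain in dilution series, associating 300 s and dissociating 600 s at 30 μl/min. Ligand was antibody captured (~240 RU) on immobilized Protein A/G (~3000 RU). Running buffer HBS-EP+.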

The target of assay [5] is T5, Human SIRPαV1 (NP_542970.1), Extracellular Domain + His-Tag (human, UniProt P78324 31-373).
T5 construct: also called huSIRPαV1; hSIRPαV1; not shown: His-Tag
Described as above. A digest of the protocol: as §4

For assay [6], the target named is T6, human SIRPγ extracellular domain + His-tag (NP_061026.2) (human, UniProt Q9P1W8 29-360).
T6 construct: also called hSIRPγ; HuSIRPγ
In words: SPR, Ab captured, ECD-His analyte. The protocol:
(§5) The binding affinity of anti-SIRPα antibodies to the various SIRPα analytes is determined by surface plasmon resonance (SPR) using a ProteOn XPR36 (Bio-Rad). The running buffer for this experiment and all dilutions (except where stated) are done in 1×HBS-EP+. […] The sensorchip is deactivated with 1M ethanolamine HCl for 420 sec at a flowrate of 10 μl/min.
(§6) The analyte is injected over the captured antibody for 300 sec at a flowrate of 30 μl/min. The dissociation is done for 600 sec. Two-fold serial dilutions of each SIRP protein (Extracellular Domain+His-Tag) are injected as analyte with the highest concentrations indicated in table 36 below.

Assay [7] addresses T7, human SIRPβ1 extracellular domain + His-tag (NP_006056.2) (human, UniProt O00241 30-371).
T7 construct: also called hSIRPβ1; HuSIRPβ1
Kind of assay: SPR, Ab captured, ECD-His analyte. The protocol: as §5, §6

In assay [8] the target is T8, human SIRPαV2 extracellular domain + His-tag (CAA71403.1) (human, UniProt P78324 31-373).
T8 construct: also called hSIRPαV2; HuSIRPαV2
Kind of assay: SPR, Ab captured, ECD-His analyte. The protocol: as §5, §6

The target of assay [9] is T9, human SIRPαV1 extracellular domain + His-tag (NP_542970.1) (human, UniProt P78324 31-373).
T9 construct: also called hSIRPαV1; HuSIRPαV1
In words: SPR, Ab captured, ECD-His analyte. As to the method: as §5, §6

Assay [10] concerns the target T10, human SIRPβL/SIRPβ1v3 extracellular domain + His-tag (NP_001129316.1) (human, UniProt Q5TFQ8 30-371).
T10 construct: also called hSIRPβ1v3; HuSIRPβ1v3
Kind of assay: SPR, Ab captured, ECD-His analyte. As to the method: as §5, §6

T9 sequence (P78324 other isoform, or with tags, fused parts or gaps): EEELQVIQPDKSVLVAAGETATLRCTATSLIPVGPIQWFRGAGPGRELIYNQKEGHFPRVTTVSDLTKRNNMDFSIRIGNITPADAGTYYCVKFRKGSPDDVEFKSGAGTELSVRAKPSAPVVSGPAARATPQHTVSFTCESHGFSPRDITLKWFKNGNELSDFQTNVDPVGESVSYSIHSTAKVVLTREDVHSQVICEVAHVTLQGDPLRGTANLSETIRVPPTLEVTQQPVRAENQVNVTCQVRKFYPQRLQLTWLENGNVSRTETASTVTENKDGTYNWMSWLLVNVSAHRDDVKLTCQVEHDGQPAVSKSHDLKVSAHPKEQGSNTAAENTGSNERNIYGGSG
T6 sequence (Q9P1W8 29-360): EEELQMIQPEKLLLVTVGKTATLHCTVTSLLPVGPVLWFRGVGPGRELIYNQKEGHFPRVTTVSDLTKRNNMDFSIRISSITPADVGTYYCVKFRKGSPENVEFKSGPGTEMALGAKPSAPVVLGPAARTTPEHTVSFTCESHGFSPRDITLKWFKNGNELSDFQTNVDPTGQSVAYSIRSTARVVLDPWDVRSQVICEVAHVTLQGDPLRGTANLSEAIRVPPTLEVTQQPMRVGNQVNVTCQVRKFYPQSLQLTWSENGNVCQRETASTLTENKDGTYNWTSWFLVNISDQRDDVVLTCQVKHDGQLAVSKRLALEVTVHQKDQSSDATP
T4 sequence (P78324 other isoform, or with tags, fused parts or gaps): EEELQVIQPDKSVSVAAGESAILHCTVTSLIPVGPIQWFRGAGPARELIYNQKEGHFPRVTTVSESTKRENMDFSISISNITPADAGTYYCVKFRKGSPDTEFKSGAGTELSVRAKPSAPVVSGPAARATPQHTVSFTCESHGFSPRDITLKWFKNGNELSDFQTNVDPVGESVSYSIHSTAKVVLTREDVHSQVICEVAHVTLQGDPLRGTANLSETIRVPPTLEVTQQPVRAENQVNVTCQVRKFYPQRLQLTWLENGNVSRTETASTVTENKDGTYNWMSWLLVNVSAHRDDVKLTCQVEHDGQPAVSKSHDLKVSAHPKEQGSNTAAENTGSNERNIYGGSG
T7 sequence (O00241 other isoform, or with tags, fused parts or gaps): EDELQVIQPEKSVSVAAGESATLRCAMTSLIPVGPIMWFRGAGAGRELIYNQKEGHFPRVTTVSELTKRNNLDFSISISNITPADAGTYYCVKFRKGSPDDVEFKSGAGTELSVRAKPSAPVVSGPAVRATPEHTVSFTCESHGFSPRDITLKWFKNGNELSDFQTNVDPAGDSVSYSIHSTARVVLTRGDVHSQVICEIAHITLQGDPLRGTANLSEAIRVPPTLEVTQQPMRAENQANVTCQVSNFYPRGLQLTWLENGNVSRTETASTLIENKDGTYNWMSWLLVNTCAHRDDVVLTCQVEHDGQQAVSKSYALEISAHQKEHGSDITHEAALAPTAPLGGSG
T10 sequence (Q5TFQ8 other isoform, or with tags, fused parts or gaps): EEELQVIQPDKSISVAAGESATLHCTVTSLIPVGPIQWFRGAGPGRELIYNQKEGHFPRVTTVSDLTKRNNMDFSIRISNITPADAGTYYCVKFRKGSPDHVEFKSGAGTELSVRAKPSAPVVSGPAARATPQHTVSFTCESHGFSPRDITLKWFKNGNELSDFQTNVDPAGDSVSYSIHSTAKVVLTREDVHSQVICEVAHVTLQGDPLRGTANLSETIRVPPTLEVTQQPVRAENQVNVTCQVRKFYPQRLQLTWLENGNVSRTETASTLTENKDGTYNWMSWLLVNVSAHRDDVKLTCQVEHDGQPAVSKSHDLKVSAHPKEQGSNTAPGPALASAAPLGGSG

B1: Antibody A1 (antibody, human IgG1, kappa, L234A L235A, V domains shown)
VH: EVQLVESGGGLVQPGGSLRLSCAASGFTLSSYDMHWVRQAPGKGLEWVSAIGTAGDTYYTGSVKGRFTISRENAKNSLYLQMNSLRADDTAVYYCVRGGVWDDAFDIWGQGTMVTVSS
VL: DIQMTQSPSSLSASVGDRVTITCRASQGINNYAAWFQQKPGKAPKSLIYTASSLHSGVPSKFSGSGSGTDFTLTISSLQPEDFATYYCQQYVSYPYTFGQGTKLEIKR
Consider B1, for which the Kd in assay [1] turned out to be 427 nM; in [2], 523 nM; in assay [3] it was 780 nM; in assay [4] it was 18.6 nM; in assay [5], 8.6 nM. The koff in assay [4] was determined as 0.0162 s⁻¹; in assay [5], 0.00625 s⁻¹. Further, the on-rate (kon) in assay [4] worked out at 869000 M⁻¹ s⁻¹; in assay [5] it was 727000 M⁻¹ s⁻¹.

B2: Antibody A10 (antibody, human IgG1, kappa, L234A L235A)
heavy: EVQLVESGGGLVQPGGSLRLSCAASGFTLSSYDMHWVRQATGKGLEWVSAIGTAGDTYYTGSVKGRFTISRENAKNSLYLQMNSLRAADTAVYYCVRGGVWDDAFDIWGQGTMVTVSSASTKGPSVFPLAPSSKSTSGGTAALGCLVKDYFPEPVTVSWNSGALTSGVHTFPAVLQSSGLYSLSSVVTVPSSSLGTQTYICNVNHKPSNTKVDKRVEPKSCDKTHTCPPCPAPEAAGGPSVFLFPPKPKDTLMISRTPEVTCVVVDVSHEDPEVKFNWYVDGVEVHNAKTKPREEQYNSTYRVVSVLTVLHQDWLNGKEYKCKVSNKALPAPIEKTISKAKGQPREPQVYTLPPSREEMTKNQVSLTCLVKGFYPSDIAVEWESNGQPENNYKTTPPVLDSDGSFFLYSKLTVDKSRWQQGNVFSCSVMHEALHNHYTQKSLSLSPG
light: DIQMTQSPSSLSASVGDRVTITCRASQDINNYLAWFQQKPGKAPKSLIYTASSLHSGVPSKFSGSGSGTDFTLTISSLQPEDFATYYCQQYVSYPYTFGQGTKLEIKRTVAAPSVFIFPPSDEQLKSGTASVVCLLNNFYPREAKVQWKVDNALQSGNSQESVTEQDSKDSTYSLSSTLTLSKADYEKHKVYACEVTHQGLSSPVTKSFNRGEC
For B2, the Kd in [1] amounted to 203 nM; in assay [2], 282 nM; in assay [3] it was 388 nM.

B3: Antibody A4 (antibody, human IgG1, kappa, L234A L235A, V domains shown)
VH: EVQLVESGGGLVQPGGSLRLSCAASGFTLSSYDMHWVRQAPGKGLEWVSAIGTAGDTYYTGSVKGRFTISRENAKNSLYLQMNSLRAADTAVYYCVRGGVWDDAFDIWGQGTMVTVSS
VL: DIQMTQSPSSLSASVGDRVTITCRASQGINNYAAWFQQKPGKAPKSLIYTASSLHSGVPSKFSGSGSGTDFTLTISSLQPEDFATYYCQQYVSYPYTFGQGTKLEIKR
In the case of B3, the Kd in [1] was found to be 420 nM; in [2], 488 nM; in assay [3] it was 669 nM.

B4: Antibody E18 (antibody, human IgG1, kappa, L234A L235A, V domains shown)
VH: QVQLQESGPGLVRPSETLSLTCTVSGGSIRNYYWSWIRQPPGKGLEWIGFIYYTGRTFYNPSLKSRVTISLDMSKNQFSLKMTSVTAADTAVYYCARVRAYSGIGLDGTDVWGQGTTVTVSS
VL: DIVMTQSPLSLPVTPGEPASISCKSSQSLLYSNGYAYLDWYLQRPGQSPQLLIYLGSNRASGVPDRFSGSGSGTDFTLKISRVEAEDVGVYYCMQALQTPLTFGGGTKVEIKR
As to B4, the binding result in assay [6] and in [7] was “no binding (tested: 1000 nM)” each time. Also, the Kd in [8] was 0.898 nM; in assay [9] it was 2.46 nM; in [10], 4.8 nM.

B5: Antibody E21 (antibody, human IgG1, kappa, L234A L235A, V domains shown)
VH: QVQLQESGPGLVRPSETLSLTCTVSGGSIRNYYWSWIRQPPGKGLEWIGFIYYTGRTFYNPSLKSRVTISLDMSKNQFSLKMTSVTAADTAVYYCARVRAYSGIGLDGTDVWGQGTTVTVSS
VL: DIVMTQSPLSLPVTPGEPASISCKSSQSLLYSNAYNYLDWYLQRPGQSPQLLIYLGSNRASGVPDRFSGSGSGTDFTLKISRVEAEDVGVYYCMQALQTPLTFGGGTKVEIKR
B5: the binding result in assay [6] and in assay [7] was “no binding (tested: 1000 nM)” in each case. Also, the figures for the Kd in assay [8], in [9] and in assay [10] were 1.39 nM, 4.46 nM and 8.84 nM, respectively.

B6: Antibody E20 (antibody, human IgG1, kappa, L234A L235A, V domains shown)
VH: QVQLQESGPGLVRPSETLSLTCTVSGGSIRNYYWSWIRQPPGKGLEWIGFIYYTGRTFYNPSLKSRVTISLDMSINQFSLKMTSVTAADTAVYYCARVRAYSGIGLDGTDVWGQGTTVTVSS
VL: DIVMTQSPLSLPVTPGEPASISCKSSQSLLYSNAYNYLDWYLQRPGQSPQLLIYLGSNRASGVPDRFSGSGSGTDFTLKISRVEAEDVGVYYCMQALQTPLTFGGGTKVEIKR
On to B6, for which the binding result in assay [6] was “no binding (tested: 1000 nM)”. Moreover, the Kd stood at 435 nM in assay [7], 1.11 nM in assay [8], 3.42 nM in assay [9] and 8.48 nM in assay [10].

B7: Antibody E19 (antibody, human IgG1, kappa, L234A L235A, V domains shown)
VH: QVQLQESGPGLVRPSETLSLTCTVSGGSIRNYYWSWIRQPPGKGLEWIGFIYYTGRTFYNPSLKSRVTISLDMSKNQFSLKMTSVTAADTAVYYCARVRAYSGIGLDGTDVWGQGTTVTVSS
VL: DIVMTQSPLSLPVTPGEPASISCKSSQSLLYSNGYAYLDWYLQRPGQSPQLLIYQGSNRASGVPDRFSGSGSGTDFTLKISRVEAEDVGVFYCMQALQTPLTFGGGTKVEIKR
With B7, in assay [6], the binding result is “no binding (tested: 1000 nM)”. Besides, the Kd was determined as 1660 nM in [7], 0.97 nM in assay [8], 2.52 nM in assay [9] and 4.74 nM in assay [10].

B8: Antibody A11 (antibody, human IgG4 S228P, kappa)
heavy: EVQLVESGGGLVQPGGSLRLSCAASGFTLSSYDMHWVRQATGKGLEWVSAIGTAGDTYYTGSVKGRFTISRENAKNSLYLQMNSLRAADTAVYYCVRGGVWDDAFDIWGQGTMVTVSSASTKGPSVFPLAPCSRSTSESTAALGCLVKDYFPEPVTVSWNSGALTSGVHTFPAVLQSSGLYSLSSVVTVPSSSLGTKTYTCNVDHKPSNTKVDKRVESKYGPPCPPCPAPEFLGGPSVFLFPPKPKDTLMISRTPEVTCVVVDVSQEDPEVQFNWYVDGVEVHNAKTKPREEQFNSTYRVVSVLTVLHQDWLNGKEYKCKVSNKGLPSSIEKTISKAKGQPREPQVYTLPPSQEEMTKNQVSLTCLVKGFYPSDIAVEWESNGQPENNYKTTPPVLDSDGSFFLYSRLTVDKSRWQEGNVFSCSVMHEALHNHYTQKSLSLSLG
light: DIQMTQSPSSLSASVGDRVTITCRASQDINNYLAWFQQKPGKAPKSLIYTASSLHSGVPSKFSGSGSGTDFTLTISSLQPEDFATYYCQQYVSYPYTFGQGTKLEIKRTVAAPSVFIFPPSDEQLKSGTASVVCLLNNFYPREAKVQWKVDNALQSGNSQESVTEQDSKDSTYSLSSTLTLSKADYEKHKVYACEVTHQGLSSPVTKSFNRGEC
For the molecule B8, the Kd was found to be 204 nM in assay [1], 298 nM in [2] and 410 nM in assay [3].
